Measurements: patent US20260242478A1 (published 2026)
Where no end group is shown, it is not given here.

Legend:
006 PSMA Fab [1] = biological target: T1, 006 PSMA Fab (biotinylated (site not stated)); assay: clonal phage ELISA on captured PSMA Fab, wells pre-incubated with PSMA antigen as competitor
T1 construct: also called Anti-PSMA Fab

006 PSMA Fab [2] = biological target: T1, 006 PSMA Fab; assay: clonal phage ELISA on biotinylated PSMA Fab captured on neutravidin, anti-M13-HRP detection;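 further: crude clonal phage supernatants added to wells preincubated with PSMA antigen in blocking buffer or with blocking buffer alone, brief binding period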
Procedure: (§1) Clonal phage were harvested as crude supernatants and screened via standard ELISAs. […] Prior to the addition of clonal phage. wells were incubated with blocking buffer and PSMA antigen or blocking buffer alone. Without washing or aspirating, clonal phage supernatants were then added to the wells and incubated for a short time. Wells were then washed followed by detection of bound phage using a horse radish conjugated anti-M13 antibody.

PSMA Fab (006 PSMA Fab) [3] = biological target: T2, PSMA Fab (006 PSMA Fab) (biotinylated (site not stated)); assay: clonal phage ELISA on biotinylated PSMA Fab captured on neutravidin, anti-M13 HRP detection, competitor PSMA antigen
T2 construct: also called Anti-PSMA Fab

PSMA Fab (006 PSMA Fab) [4] = biological target: T2, PSMA Fab (006 PSMA Fab); assay: clonal phage ELISA on biotinylated PSMA Fab captured on neutravidin, anti-M13 HRP detection, no PSMA antigen
Procedure: as §1

PSMA Fab [5] = biological target: T3, PSMA Fab (biotinylated (site not stated)); assay: phage ELISA, captured anti-PSMA Fab pre-incubated with PSMA antigen as competitor, anti-M13 HRP detection
T3 construct: Biotinylated PSMA Fab captured on neutravidin coated plates in the phage ELISA; also called Anti-PSMA Fab; 006 PSMA Fab

PSMA Fab [6] = biological target: T3, PSMA Fab; assay: phage ELISA, biotinylated anti-PSMA Fab on neutravidin plate, anti-M13 HRP detection
Procedure: as §1

| Binder | Phage binding ELISA signal, Anti-PSMA Fab with PSMA antigen (PSMA Fab (006 PSMA Fab) [3]) | Phage binding ELISA signal, Anti-PSMA Fab (PSMA Fab (006 PSMA Fab) [4]) | Phage binding ELISA signal, Anti-PSMA Fab in presence of PSMA antigen (PSMA Fab [5]) | Phage binding ELISA signal, Anti-PSMA Fab (PSMA Fab [6]) | also measured |
| --- | --- | --- | --- | --- | --- |
| DVRMCKPSWMCIGL (Peptide-180 library clone, tested as clonal phage (peptide fused to pIII)) [Phage-2941] | – | – | – | – | Phage binding ELISA signal, Anti-PSMA Fab in presence of PSMA (006 PSMA Fab [1]): 0.0754; Phage binding ELISA signal, Anti-PSMA Fab (006 PSMA Fab [2]): 2.28 |
| YLQFCKPVWMCTGF [Phage-2956] | 0.15 | 2.27 | – | – | – |
| DIPICRPQWMCIGF (cysteine pairing not given here; also: peptide displayed as fusion to phage pIII, Clonal phage of the peptide-180 optimisation library, tested as crude phage supernatant; not shown: bacteriophage pIII coat protein to which the peptide is fused for display) [Phage-2971] | – | – | 0.0617 | 2.25 | – |
| LDIWCVPAWMCHGF (cysteine pairing not given here; also: peptide displayed as fusion to phage pIII, Clonal phage of the peptide-180 optimisation library, tested as crude phage supernatant; not shown: bacteriophage pIII coat protein to which the peptide is fused for display) [Phage-2969] | – | – | 0.0712 | 2.26 | – |
| EQPLCTPQWMCWGF [Phage-2958] | 0.0972 | 2.27 | – | – | – |
| PEFVCKPSWMCQGF [Phage-2959] | 0.0681 | 2.26 | – | – | – |
| EGIYCRPAWMCEGF (Peptide-180 library clone, tested as clonal phage (peptide fused to pIII)) [Phage-2943] | – | – | – | – | Phage binding ELISA signal, Anti-PSMA Fab in presence of PSMA (006 PSMA Fab [1]): 0.0765; Phage binding ELISA signal, Anti-PSMA Fab (006 PSMA Fab [2]): 2.28 |
| EMRMCTPPWMCWGF (Peptide-180 library clone, tested as clonal phage (peptide fused to pIII)) [Phage-2946] | – | – | – | – | Phage binding ELISA signal, Anti-PSMA Fab in presence of PSMA (006 PSMA Fab [1]): 0.112; Phage binding ELISA signal, Anti-PSMA Fab (006 PSMA Fab [2]): 2.28 |
| ADPVCRPQWMCEGF [Phage-2961] | 0.11 | 2.26 | – | – | – |
| VSPLCVPSWMCVGF (cysteine pairing not given here; also: peptide displayed as fusion to phage pIII, Clonal phage of the peptide-180 optimisation library, tested as crude phage supernatant; not shown: bacteriophage pIII coat protein to which the peptide is fused for display) [Phage-2973] | – | – | 0.108 | 2.25 | – |
| AYEMCIPAWMCEGF [Phage-2957] | 0.0905 | 2.27 | – | – | – |
| VFPMCKPAWMCLGF (Peptide-180 library clone, tested as clonal phage (peptide fused to pIII)) [Phage-2937] | – | – | – | – | Phage binding ELISA signal, Anti-PSMA Fab in presence of PSMA (006 PSMA Fab [1]): 0.319; Phage binding ELISA signal, Anti-PSMA Fab (006 PSMA Fab [2]): 2.29 |
| LFKMCQPSWMCDGF (cysteine pairing not given here; also: peptide displayed as fusion to phage pIII, Clonal phage of the peptide-180 optimisation library, tested as crude phage supernatant; not shown: bacteriophage pIII coat protein to which the peptide is fused for display) [Phage-2965] | – | – | 0.0804 | 2.26 | – |
| ISALCVPDWMCYGF (Peptide-180 library clone, tested as clonal phage (peptide fused to pIII)) [Phage-2939] | – | – | – | – | Phage binding ELISA signal, Anti-PSMA Fab in presence of PSMA (006 PSMA Fab [1]): 0.696; Phage binding ELISA signal, Anti-PSMA Fab (006 PSMA Fab [2]): 2.28 |
| VDIQCKPLWMCIGM [Phage-2953] | 0.0643 | 2.27 | – | – | – |
| PGPLCVPEWMCIGF (cysteine pairing not given here; also: peptide displayed as fusion to phage pIII, Clonal phage of the peptide-180 optimisation library, tested as crude phage supernatant; not shown: bacteriophage pIII coat protein to which the peptide is fused for display) [Phage-2964] | – | – | 0.114 | 2.26 | – |
| TVIKCIPAWMCDGF (Peptide-180 library clone, tested as clonal phage (peptide fused to pIII)) [Phage-2945] | – | – | – | – | Phage binding ELISA signal, Anti-PSMA Fab in presence of PSMA (006 PSMA Fab [1]): 0.09; Phage binding ELISA signal, Anti-PSMA Fab (006 PSMA Fab [2]): 2.28 |
| LTPMCKPSWMCDGF (Peptide-180 library clone, tested as clonal phage (peptide fused to pIII)) [Phage-2944] | – | – | – | – | Phage binding ELISA signal, Anti-PSMA Fab in presence of PSMA (006 PSMA Fab [1]): 0.105; Phage binding ELISA signal, Anti-PSMA Fab (006 PSMA Fab [2]): 2.28 |
| WDHLCKPDWMCLGF [Phage-2949] | 0.0766 | 2.28 | – | – | – |

| Binder | Phage binding ELISA signal, Anti-PSMA Fab with PSMA antigen (PSMA Fab (006 PSMA Fab) [3]) | Phage binding ELISA signal, Anti-PSMA Fab (PSMA Fab (006 PSMA Fab) [4]) | Phage binding ELISA signal, Anti-PSMA Fab in presence of PSMA antigen (PSMA Fab [5]) | Phage binding ELISA signal, Anti-PSMA Fab (PSMA Fab [6]) | also measured |
| --- | --- | --- | --- | --- | --- |
| FDKICVPTWMCTGF (Peptide-180 library clone, tested as clonal phage (peptide fused to pIII)) [Phage-2940] | – | – | – | – | Phage binding ELISA signal, Anti-PSMA Fab in presence of PSMA (006 PSMA Fab [1]): 0.107; Phage binding ELISA signal, Anti-PSMA Fab (006 PSMA Fab [2]): 2.28 |
| TLMRCEPSWMCQGF [Phage-2954] | 0.0698 | 2.27 | – | – | – |
| NLPLCKPAWMCKWL (cysteine pairing not given here; also: peptide displayed as fusion to phage pIII, Clonal phage of the peptide-180 optimisation library, tested as crude phage supernatant; not shown: bacteriophage pIII coat protein to which the peptide is fused for display) [Phage-2963] | – | – | 0.125 | 2.26 | – |
| QTPVCIPEWMCTGF (cysteine pairing not given here; also: peptide displayed as fusion to phage pIII, Clonal phage of the peptide-180 optimisation library, tested as crude phage supernatant; not shown: bacteriophage pIII coat protein to which the peptide is fused for display) [Phage-2966] | – | – | 0.091 | 2.26 | – |
| GDVYCKPAWMCDGF (cysteine pairing not given here; also: peptide displayed as fusion to phage pIII, Clonal phage of the peptide-180 optimisation library, tested as crude phage supernatant; not shown: bacteriophage pIII coat protein to which the peptide is fused for display) [Phage-2972] | – | – | 0.0762 | 2.25 | – |
| ENIMCEPMWMCIGF [Phage-2951] | 0.0839 | 2.27 | – | – | – |
| WEAMCQPLWMCTGF (cysteine pairing not given here; also: peptide displayed as fusion to phage pIII, Clonal phage of the peptide-180 optimisation library, tested as crude phage supernatant; not shown: bacteriophage pIII coat protein to which the peptide is fused for display) [Phage-2968] | – | – | 0.0968 | 2.26 | – |
| VYPLCKPSWMCSGL (cysteine pairing not given here; also: peptide displayed as fusion to phage pIII, Clonal phage of the peptide-180 optimisation library, tested as crude phage supernatant; not shown: bacteriophage pIII coat protein to which the peptide is fused for display) [Phage-2970] | – | – | 0.0843 | 2.26 | – |
| SSPICKPMWMCTGF [Phage-2950] | 0.0918 | 2.28 | – | – | – |
| HVPKCVPQWMCIGF (Peptide-180 library clone, tested as clonal phage (peptide fused to pIII)) [Phage-2938] | – | – | – | – | Phage binding ELISA signal, Anti-PSMA Fab in presence of PSMA (006 PSMA Fab [1]): 0.202; Phage binding ELISA signal, Anti-PSMA Fab (006 PSMA Fab [2]): 2.29 |
| TTAYCIPPWMCSGF [Phage-2955] | 0.15 | 2.27 | – | – | – |
| ELILCQPRWMCEGF (Peptide-180 library clone, tested as clonal phage (peptide fused to pIII)) [Phage-2942] | – | – | – | – | Phage binding ELISA signal, Anti-PSMA Fab in presence of PSMA (006 PSMA Fab [1]): 0.0637; Phage binding ELISA signal, Anti-PSMA Fab (006 PSMA Fab [2]): 2.28 |
| IMPKCEPIWMCAGF (cysteine pairing not given here; also: peptide displayed as fusion to phage pIII) [Phage-2952] | 0.0746 | 2.27 | – | – | – |
| VQSLCVPYWMCTGF (cysteine pairing not given here; also: peptide displayed as fusion to phage pIII, Clonal phage of the peptide-180 optimisation library, tested as crude phage supernatant; not shown: bacteriophage pIII coat protein to which the peptide is fused for display) [Phage-2962] | – | – | 0.102 | 2.26 | – |
| GDHLCRPSWMCVGF (Peptide-180 library clone, tested as clonal phage (peptide fused to pIII)) [Phage-2947] | – | – | – | – | Phage binding ELISA signal, Anti-PSMA Fab in presence of PSMA (006 PSMA Fab [1]): 0.0649; Phage binding ELISA signal, Anti-PSMA Fab (006 PSMA Fab [2]): 2.28 |
| FPHMCKPEWMCAGF (cysteine pairing not given here; also: peptide displayed as fusion to phage pIII) [Phage-2948] | 0.0876 | 2.28 | – | – | – |
| GERYCVPAWMCAGL (cysteine pairing not given here; also: peptide displayed as fusion to phage pIII, Clonal phage of the peptide-180 optimisation library, tested as crude phage supernatant; not shown: bacteriophage pIII coat protein to which the peptide is fused for display) [Phage-2967] | – | – | 0.106 | 2.26 | – |
| WEQRCVPEWMCVGF [Phage-2960] | 0.0987 | 2.26 | – | – | – |
| VGAACIPDWMCVGF (cysteine pairing not given here; also: peptide displayed as fusion to phage pIII, Clonal phage of the peptide-180 optimisation library, tested as crude phage supernatant; not shown: bacteriophage pIII coat protein to which the peptide is fused for display) [Phage-2974] | – | – | 0.0732 | 2.25 | – |
